Experimental data published in patent US20100144601A1 (Janssen / Centocor, published 2010).

Molecular target: T1, recombinant TNFα, biotinylated (human, UniProt P01375 77-233, biotinylated using sulfo-NHS-LC-Biotin (sites not given))
T1 construct: human is stated in the abstract and claims; also called biotinylated TNFα; human TNFα
Assay: ELISA of lysates on biotinylated TNFα on streptavidin plate
Experimental: Maxisorp plates (Nunc) were coated with 0.5 μg of streptavidin, washed with TBST, and bound to 100 ng of biotinylated TNFα or 200 ng of biotinylated human serum albumin before being blocked with Starting Block (Thermo Scientific). Clarified lysates diluted 1:1 in Starting Block were added to the plates and allowed to bind for 1 hour before being washed with TBST. Detection of bound Tencon was accomplished using an anti-HIS-HRP antibody (Qiagen).

T1 sequence (P01375 77-233 limits assumed): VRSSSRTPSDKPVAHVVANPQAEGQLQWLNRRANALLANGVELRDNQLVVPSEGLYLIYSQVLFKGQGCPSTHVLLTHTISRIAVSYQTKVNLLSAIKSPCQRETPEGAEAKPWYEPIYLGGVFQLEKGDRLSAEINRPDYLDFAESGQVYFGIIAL

Row | Binder | binding result
1 | Clone No. 6 (designed binder, F:G GGLTVIH) LPAPKNLVVSEVTEDSLRLSWTAPDAAFDSFLIQYQESEKVGEAINLTVPGSERSYDLTGLKPGTEYTVSIYGVGGLTVIHPLSAEFTT | binds
2 | Clone No. 8 (designed binder, F:G GGLTYLH) LPAPKNLVVSEVTEDSLRLSWTAPDAAFDSFLIQYQESEKVGEAINLTVPGSERSYDLTGLKPGTEYTVSIYGVGGLTYLHPLSAEFTT | binds
3 | Clone No. 36 (designed binder, F:G GGLSVVH) LPAPKNLVVSEVTEDSLRLSWTAPDAAFDSFLIQYQESEKVGEAINLTVPGSERSYDLTGLKPGTEYTVSIYGVGGLSVVHPLSAEFTT | binds
4 | Clone No. 71 (designed binder, F:G GGLRYLH) LPAPKNLVVSEVTEDSLRLSWTAPDAAFDSFLIQYQESEKVGEAINLTVPGSERSYDLTGLKPGTEYTVSIYGVGGLRYLHPLSAEFTT | binds
5 | Clone No. 9 (designed binder, F:G GGLSYFH) LPAPKNLVVSEVTEDSLRLSWTAPDAAFDSFLIQYQESEKVGEAINLTVPGSERSYDLTGLKPGTEYTVSIYGVGGLSYFHPLSAEFTT | binds
6 | Clone No. 10 (designed binder, F:G GGLTDIH) LPAPKNLVVSEVTEDSLRLSWTAPDAAFDSFLIQYQESEKVGEAINLTVPGSERSYDLTGLKPGTEYTVSIYGVGGLTDIHPLSAEFTT | binds
7 | Clone No. 3 (designed binder, F:G EGLGVIH) LPAPKNLVVSEVTEDSLRLSWTAPDAAFDSFLIQYQESEKVGEAINLTVPGSERSYDLTGLKPGTEYTVSIYGVEGLGVIHPLSAEFTT | binds
8 | Clone No. 69 (designed binder, F:G VLSVLQR) LPAPKNLVVSEVTEDSLRLSWTAPDAAFDSFLIQYQESEKVGEAINLTVPGSERSYDLTGLKPGTEYTVSIYGVVLSVLQRPLSAEFTT | binds
9 | Clone No. 1 (designed binder, F:G GGLTYFH) LPAPKNLVVSEVTEDSLRLSWTAPDAAFDSFLIQYQESEKVGEAINLTVPGSERSYDLTGLKPGTEYTVSIYGVGGLTYFHPLSAEFTT | binds
10 | Clone No. 84 (designed binder, F:G SVRMSSV) LPAPKNLVVSEVTEDSLRLSWTAPDAAFDSFLIQYQESEKVGEAINLTVPGSERSYDLTGLKPGTEYTVSIYGVSVRMSSVPLSAEFTT | binds
11 | Clone No. 76 (designed binder, F:G GGWPVRV) LPAPKNLVVSEVTEDSLRLSWTAPDAAFDSFLIQYQESEKVGEAINLTVPGSERSYDLTGLKPGTEYTVSIYGVGGWPVRVPLSAEFTT | binds
12 | Clone No. 77 (designed binder, F:G LDLYLRT) LPAPKNLVVSEVTEDSLRLSWTAPDAAFDSFLIQYQESEKVGEAINLTVPGSERSYDLTGLKPGTEYTVSIYGVLDLYLRTPLSAEFTT | binds
13 | Clone No. 11 (designed binder, F:G GGLSSIH) LPAPKNLVVSEVTEDSLRLSWTAPDAAFDSFLIQYQESEKVGEAINLTVPGSERSYDLTGLKPGTEYTVSIYGVGGLSSIHPLSAEFTT | binds
14 | Clone No. 83 (designed binder, F:G DVTEVYM) LPAPKNLVVSEVTEDSLRLSWTAPDAAFDSFLIQYQESEKVGEAINLTVPGSERSYDLTGLKPGTEYTVSIYGVDVTEVYMPLSAEFTT | binds
15 | Clone No. 7 (designed binder, F:G GGLTYIH) LPAPKNLVVSEVTEDSLRLSWTAPDAAFDSFLIQYQESEKVGEAINLTVPGSERSYDLTGLKPGTEYTVSIYGVGGLTYIHPLSAEFTT | binds
16 | Clone No. 82 (designed binder, F:G WMVNKVL) LPAPKNLVVSEVTEDSLRLSWTAPDAAFDSFLIQYQESEKVGEAINLTVPGSERSYDLTGLKPGTEYTVSIYGVWMVNKVLPLSAEFTT | binds
17 | Clone No. 72 (designed binder, F:G MLKSFAS) LPAPKNLVVSEVTEDSLRLSWTAPDAAFDSFLIQYQESEKVGEAINLTVPGSERSYDLTGLKPGTEYTVSIYGVMLKSFASPLSAEFTT | binds
18 | Clone No. 12 (designed binder, F:G GGLRVIH) LPAPKNLVVSEVTEDSLRLSWTAPDAAFDSFLIQYQESEKVGEAINLTVPGSERSYDLTGLKPGTEYTVSIYGVGGLRVIHPLSAEFTT | binds
19 | Clone No. 4 (designed binder, F:G GGLGVIH) LPAPKNLVVSEVTEDSLRLSWTAPDAAFDSFLIQYQESEKVGEAINLTVPGSERSYDLTGLKPGTEYTVSIYGVGGLGVIHPLSAEFTT | binds
20 | Clone No. 75 (designed binder, F:G MTLTGID) LPAPKNLVVSEVTEDSLRLSWTAPDAAFDSFLIQYQESEKVGEAINLTVPGSERSYDLTGLKPGTEYTVSIYGVMTLTGIDPLSAEFTT | binds
21 | Clone No. 5 (designed binder, F:G GGLSVIH) LPAPKNLVVSEVTEDSLRLSWTAPDAAFDSFLIQYQESEKVGEAINLTVPGSERSYDLTGLKPGTEYTVSIYGVGGLSVIHPLSAEFTT | binds
22 | Clone No. 85 (designed binder, F:G LWWTLRK) LPAPKNLVVSEVTEDSLRLSWTAPDAAFDSFLIQYQESEKVGEAINLTVPGSERSYDLTGLKPGTEYTVSIYGVLWWTLRKPLSAEFTT | binds
23 | Clone No. 70 (designed binder, F:G EWRVQVA) LPAPKNLVVSEVTEDSLRLSWTAPDAAFDSFLIQYQESEKVGEAINLTVPGSERSYDLTGLKPGTEYTVSIYGVEWRVQVAPLSAEFTT | binds

Now from value to binder:

Row | binding result | Binder
24 | binds | Clone No. 14 (designed binder, F:G GGLSFLH) LPAPKNLVVSEVTEDSLRLSWTAPDAAFDSFLIQYQESEKVGEAINLTVPGSERSYDLTGLKPGTEYTVSIYGVGGLSFLHPLSAEFTT
25 | binds | Clone No. 68 (designed binder, F:G WHGMIRP) LPAPKNLVVSEVTEDSLRLSWTAPDAAFDSFLIQYQESEKVGEAINLTVPGSERSYDLTGLKPGTEYTVSIYGVWHGMIRPPLSAEFTT
26 | binds | Clone No. 2 (designed binder, F:G GGLSDIH) LPAPKNLVVSEVTEDSLRLSWTAPDAAFDSFLIQYQESEKVGEAINLTVPGSERSYDLTGLKPGTEYTVSIYGVGGLSDIHPLSAEFTT
27 | binds | Clone No. 79 (designed binder, F:G GIPRWVR) LPAPKNLVVSEVTEDSLRLSWTAPDAAFDSFLIQYQESEKVGEAINLTVPGSERSYDLTGLKPGTEYTVSIYGVGIPRWVRPLSAEFTT
28 | binds | Clone No. 13 (designed binder, F:G GALSVIH) LPAPKNLVVSEVTEDSLRLSWTAPDAAFDSFLIQYQESEKVGEAINLTVPGSERSYDLTGLKPGTEYTVSIYGVGALSVIHPLSAEFTT
29 | binds | Clone No. 81 (designed binder, F:G VLSLWMI) LPAPKNLVVSEVTEDSLRLSWTAPDAAFDSFLIQYQESEKVGEAINLTVPGSERSYDLTGLKPGTEYTVSIYGVVLSLWMIPLSAEFTT
30 | binds | Clone No. 73 (designed binder, F:G PWRYGLH) LPAPKNLVVSEVTEDSLRLSWTAPDAAFDSFLIQYQESEKVGEAINLTVPGSERSYDLTGLKPGTEYTVSIYGVPWRYGLHPLSAEFTT
31 | binds | Clone No. 35 (designed binder, F:G GGLAYLH) LPAPKNLVVSEVTEDSLRLSWTAPDAAFDSFLIQYQESEKVGEAINLTVPGSERSYDLTGLKPGTEYTVSIYGVGGLAYLHPLSAEFTT
32 | binds | Clone No. 80 (designed binder, F:G RVSEEYG) LPAPKNLVVSEVTEDSLRLSWTAPDAAFDSFLIQYQESEKVGEAINLTVPGSERSYDLTGLKPGTEYTVSIYGVRVSEEYGPLSAEFTT
33 | binds | Clone No. 74 (designed binder, F:G GGLSYLH) LPAPKNLVVSEVTEDSLRLSWTAPDAAFDSFLIQYQESEKVGEAINLTVPGSERSYDLTGLKPGTEYTVSIYGVGGLSYLHPLSAEFTT
34 | binds | Clone No. 78 (designed binder, F:G RLTALNA) LPAPKNLVVSEVTEDSLRLSWTAPDAAFDSFLIQYQESEKVGEAINLTVPGSERSYDLTGLKPGTEYTVSIYGVRLTALNAPLSAEFTT
35 | binds | Clone No. 34 (designed binder, F:G GGLTVLH) LPAPKNLVVSEVTEDSLRLSWTAPDAAFDSFLIQYQESEKVGEAINLTVPGSERSYDLTGLKPGTEYTVSIYGVGGLTVLHPLSAEFTT
36 | binds | Clone No. 15 (designed binder, F:G ITHMRDM) LPAPKNLVVSEVTEDSLRLSWTAPDAAFDSFLIQYQESEKVGEAINLTVPGSERSYDLTGLKPGTEYTVSIYGVITHMRDMPLSAEFTT
37 | binds | Clone No. 86 (designed binder, F:G WAHLLRD) LPAPKNLVVSEVTEDSLRLSWTAPDAAFDSFLIQYQESEKVGEAINLTVPGSERSYDLTGLKPGTEYTVSIYGVWAHLLRDPLSAEFTT
